Measured values published in patent US11623951B2, “Antibodies to R-spondin 3” (National Health Research Institutes, priority 2017, dated 2023).
Several values for one entry are separate records, joined by “and”; a condition that tells them apart may be missing. Equal entries are not always repeated.

Tests used:
[1] = tested on: human SNU-1411 colon xenograft tumor; assay: SNU-1411 colon xenograft tumor carrying PTPRK(e13)-RSPO3(e2) fusion transcript; type: in vivo, mice
Protocol: FIG. 15 is a set of graphs showing anti-tumor efficacy of in human SNU-1411 colon xenograft tumor carrying PTPRK(e13)-RSPO3(e2) fusion transcript. Tumor cells were injected into the mice and treatments were initiated when the tumors reaches 200 mm^3. Antibodies were given at 25 mg/kg once every other week (Q2W) and paclitaxel at 20 mg/kg once every week (Q1W). Both antibodies and […] were administered by intravenous injection. Paclitaxel was given from day 1 to day 32 and combination groups from day 1 to day 46. Both antibodies and paclitaxel were administered by intravenous injection. For each treatment cycle, antibodies were given on day 1 and paclitaxel on day 3. Tumor and body weight measurements were taken on the indicated days. Mean±SEM. *: p<0.05 vs. control mAb by one-way ANOVA followed by Tukey's post-test comparison.
To determine the effect of antibodies on SNU-1411 xenograft tumor, tumor-bearing animals were randomized and treatment began when mean tumor volumes reached approximately 150-200 mm^3. Antibodies were given once every other week (Q2W) and paclitaxel was administered once a week (Q1W). Both antibody and paclitaxel were administered intravenously. Tumor growth was measured twice a week by an electronic caliper. Tumor volumes were calculated with the formula (L×W^2)/2, where L was the longest and W was the shortest axis of the tumor. Animal weights were recorded once a week. Mice were examined frequently for overt signs of any adverse drug-related side effects. At the end of the study, all the mice were euthanized.

[2] = tested on: RSPO3-Wnt signaling (hRSPO3), MDA-MB436 TCF/LEF-Luc cells; assay: TCF/LEF-Luc WNT reporter assay in MDA-MB436 cells stimulated by Wnt3a plus human RSPO3; type: cell-based; conditions: MDA-MB436 reporter cell line
Protocol: FIG. 4 is a set of graphs showing RSPO3 Abs targeting the canonical Wnt signaling and in vitro testing for inhibition of β-catenin activity. (A) A1, A2, A4, A5, A6, and A9 clones; (B) B1, B3, B4, B8, and B9 clones; and (C) Dose-response effect of elevated A4 and A6 clones on RSPO-Wnt signaling. MDA-MB436 TCF/LEF-Luc cells were incubated with a combination of Wnt3a (20 ng/mL) and RSPO3 (50 ng/mL) in the presence of 20 μg/mL anti-RSPO3 antibodies clone A1, A2, A4, A5, A6, A9 or 131R002. As controls, cells were incubated with a combination of Wnt3a and RSPO3, Wnt3a only, RSPO3 only, or with no addition. The cells were incubated for 16 hours and the luciferase activity assay was performed using One-Glo Luciferase Assay System.
FIG. 6 is a set of graph showing that anti-RSPO3 Ab inhibits WNT reporter activity stimulated by combination of Wnt3a and RSPO3. […] The cells were incubated for 16 hours. The luciferase activity assay was performed using One-Glo Luciferase Assay System.
Wnt signaling leads to β-catenin/TCF dependent transcriptional responses. MDA-MB436-TCF/LEF-Luc cells, a gift from Dr. Kelvin Kun-Chih Tsai, were employed to monitor the activity of Wnt signal transduction pathways. See, e.g., Wang et al. (2013). Gastroenterology (145): 1110-1120. In brief, MDA-MB436-TCF/LEF-Luc cells were seeded in black flat bottom 96 well culture plates (Costar) in RSPO Medium supplemented with 10% FBS and incubated overnight at 37° C., 5% CO2. 24 hours after incubation, cells were treated with anti-RSPO3 ab, 20 ng/ml WNT3a (R&D system) and RSPO ligands (Peprotech Systems) where appropriate and further incubated for 16 hours. Luciferase activity was measured using Bright-Glo Luciferase Assay System (Promega).

RSPO1, 2, 3, and 4 = assay: Antigen-binding ELISA, selectivity among RSPO1-4
Source text: FIG. 3 is a set of graphs showing Anti-RSPO3 hybridoma antibodies reactivity measured by ELISA. These hybridoma antibodies were reacted with RSPO1-4 antigen immunoblots, which reflect with the RSPO3 antigen. (A) A1, A2, A4, A5, A6, and A9 clones; and (B) B1, B3, B4, B8, and B9 clones.
To assess the RSPO-binding capability of antibodies, purified antibodies were reacted with RSPO1, 2, 3, and 4 on immunoblots. To perform antigen-binding ELISA assay, 96-well high binding polystyrene plates (Corning) were coated with 2 μg/ml of recombinant RSPO3 preparation in the capture buffer by overnight incubation at 4° C. Coated plates were washed twice with PBS supplemented with 0.05% Tween 20 (PBST). The plates were blocked with PBST—10% BSA and assayed with ELISA standard protocol for 1 h at room temperature.

RSPO3 = target: T1, RSPO3 (Homo sapiens, UniProt Q9BXY4); assay: Octet (ForteBio) kinetic binding to biotinylated RSPO3; conditions: 30° C.
T1 sequence (Q9BXY4 22-272): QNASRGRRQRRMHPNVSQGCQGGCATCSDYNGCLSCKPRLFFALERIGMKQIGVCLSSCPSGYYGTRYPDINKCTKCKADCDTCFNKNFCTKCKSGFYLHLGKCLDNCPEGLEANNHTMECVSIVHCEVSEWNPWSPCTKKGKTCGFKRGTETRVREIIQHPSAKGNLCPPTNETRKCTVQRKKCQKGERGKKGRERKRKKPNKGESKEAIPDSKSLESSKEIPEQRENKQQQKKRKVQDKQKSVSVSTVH
Protocol: The streptavidin-coated sensors were coated with 10 μg/ml of biotinylated RSPO3 as described in the handbook of ForteBio. Antibody concentrations were in the range of 0.75 and 93.8 nM. Quantitative kinetic binding analysis was performed with pH-adjusted PBS with 0.5% BSA. All steps were run at 30° C. with a continuous shaking speed at 1000 rpm.
To assess the RSPO3-binding affinities of the antibodies, kinetics assays were performed by the Octetsystems. The purified monoclonal antibodies (mAbs) from batch-A clones (A1, A4, A6, A9), along with the reference Ab-131R002, were examined for binding with RSPO-3.

[3] = tested on: hRSPO3 overlapping linear peptides; assay: PepSet ELISA epitope mapping with linear 10-mer peptides of RSPO3; type: binding, human; conditions: antibody 10 μg/ml
Source text: FIG. 8 is a set of graphs showing mapping of the α-RSPO3 Ab epitopes on RSPO3 protein by Pep-set. These histograms represent the ability of each 10-mer oligopeptide to bind the RSPO3 Abs 131R010(A), 131R002 (B), and hybridoma A6 (C) as indicated in the figure. QNASRGRRQR (SEQ ID NO: 74); ASRGRRQRRM (SEQ ID NO: 75); RGRRQRRMHP (SEQ ID NO: 84); RRQRRMHPNV (SEQ ID NO: 76); CLSCKPRLFF (SEQ ID NO: 77); SCKPRLFFAL (SEQ ID NO: 78); ERGKKGRERK (SEQ ID NO: 79); GKKGRERKRK (SEQ ID NO: 80); KGRERKRKKP (SEQ ID NO: 81); RERKRKKPNK (SEQ ID NO: 82); RENKQQQKKR (SEQ ID NO: 83).
ELISA for PepSet library was employed to determine α-RSPO3 hB1 antibodies and RSPO3 binding epitope. […] The colorimetric reaction were then stop by 2N HCL and the optical density at 450 nm of each well were determined immediately.
To identify the binding epitopes of α-RSPO3 Abs, an overlapping peptide library (10-mer for each peptide, offset: 2 amino acid residues, total number of peptides to cover the mature hRSPO3:122) derived from hRSPO3 amino sequences was prepared by Mimotope, Inc. The binding of α-RSPO3 mAbs to the overlapping peptides derived from hRSPO3 was measured. […] According to the epitope mapping results using linear peptides (FIG. 8 and Table 6), it was concluded that hB1 likely binds to a conformationlly-determined epitope on huRSPO3.

| Molecule | Tumor volume on day 32 ([1]; antibodies 25 mg/kg Q2W, paclitaxel 20 mg/kg Q1W, i.v.) [mm^3] | Tumor volume on day 18 ([1]; antibodies 25 mg/kg Q2W, paclitaxel 20 mg/kg Q1W, i.v., mean±SEM) [mm^3] | Tumor volume on day 32 ([1]; antibodies 25 mg/kg Q2W, paclitaxel 20 mg/kg Q1W, i.v., listed as paclitaxel) [mm^3] | Tumor volume reduction, % of Control mAb ([1]; day 18) | dose-dependent inhibitory effect in TCF/LEF-Luc reporter [2] | selectivity in binding among RSPO1-4 in ELISA (RSPO1, 2, 3, and 4) | RMax (RSPO3) | kdis (RSPO3) [s⁻¹] | kon (RSPO3) [M⁻¹ s⁻¹] | Signal (binding to linear RSPO3 peptides) [3] |
| --- | --- | --- | --- | --- | --- | --- | --- | --- | --- | --- |
| CC(=O)O[C@H]1C(=O)[C@@]2(C)[C@H]([C@H](OC(=O)c3ccccc3)[C@]3(O)C[C@H](OC(=O)[C@H](O)[C@@H](NC(=O)c4ccccc4)c4ccccc4)C(C)=C1C3(C)C)[C@]1(OC(C)=O)CO[C@@H]1C[C@@H]2O [Paclitaxel, reference compound] | 949 ± 105 | 329 ± 59 | 950 | 69% and 69 ± 6* % |  |  |  |  |  |  |
| A4: murine anti-RSPO3 mAb, IgG1; VH SEQ ID NO: 2, VL SEQ ID NO: 4 (antibody, V domains shown, heavy chain variable region; Light chain variable region) VH: QVQLQESGAELAKPGASVKMSCKASGHTLTYYWMHWVKQRPGQGLEWIGYIDPSTGYSEYNQRFEGKATLTADKSSGTVYMQLSSLTSEDSAVYYCARNGPFAYWGQGTLVTVSA VL: DNVLTQSPAIMSASPGEKVTMTCSASSSVNYMYWYQQKPGSSPRLLIYDTSKLASGVPVRFSGSGSGTSYSLTISRMEAEDAATYYCQQWSSSPLTFGVGAKLEIKR |  |  |  |  | significantly inhibitory effect in a dose-dependent manner | only reacted with RSPO3 | 0.3588 | 0.000884 | 32700 | neither the A4 nor the hB1 mAbs showed detectable binding signals |
| A6: murine anti-RSPO3 mAb, IgG2a; VH SEQ ID NO: 6, VL SEQ ID NO: 8 (antibody, V domains shown, Heavy chain variable region; Light chain variable region) VH: QVQLQQSGAEIVRSGASVKLSCTASGFSITEYYIHWVKQRPDQGLEWIGMIDPENGDTDYAPKFQGKATMTADTSSNTVNLQLSSLTSEDTAVYYCHGPGPLEYWGQGTTLTVSS VL: DIVMTQSPLSLPVSLGDQASISCRSSQSIVHSNGNTYLEWYLQKPGQSPNLLIYRVSNRFSGVPDRFNGSGSGTDFTLKISRVEPEDLGVYSCFQASHVPYTFGGGTKLEIKR |  |  |  |  | significantly inhibitory effect in a dose-dependent manner | only reacted with RSPO3 | 0.2151 | 0.0025 | 241000 |  |
| B1: murine anti-RSPO3 mAb, IgG1; VH SEQ ID NO: 10, VL SEQ ID NO: 12 (antibody, V domains shown, Heavy chain variable region; Light chain variable region) VH: QIQLQESGPGLVKPSQSLSLTCSVTGYSITSGYYWNWIRQFPGNKLEWMGYISYDGTNNYNPSLKDRISITRDTSMNQFFLKLNSVTTEDTATYYCSVLLIQYFNIWGAGTTVTVSS VL: DIQMTQSPASLSASVGETVTITCRTSESVNNFLAWFHQKQGKSPQLLVYHAKTLADGVSSRFSGSGSGTQYSLKINSLQPEDFGNYYCQHFWSIPWTFGGGTKLEIKR |  |  |  |  | significantly inhibitory effect in a dose-dependent manner | only reacted with RSPO3 |  |  |  |  |
